Data set [1] deals with HeLa Kyoto. The data set can be described thus: solubility change mitosis vs G1/S (difference of NP-40 vs SDS log2 ratios) (log2 ratio difference); higher = more soluble in mitosis.
Data set [2] deals with HeLa Kyoto. The data set can be described thus: solubility in G1/S (NP-40 vs SDS abundance) (log2 ratio); higher = more soluble. The note with it: cell cycle stage: G1/S.
The test system of data set [3] is HeLa Kyoto. The data set can be described thus: melting temperature (median over replicates), in situ; higher = more thermally stable.
Data set [4] has as its system HeLa Kyoto. The data set can be described thus: thermal stability score vs G1/S (z-score of summed log2 fold changes over temperatures); higher = more thermally stable than in G1/S.
Where [5] appears, read: cell cycle stage: early G1 (4.5 h after nocodazole release).

The text below walks through data of the supplement of paper PMC5998384.
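For melting temperature (median over replicates), in situ in this document: HeLa Kyoto cells synchronized by double thymidine or nocodazole block, proteins quantified by TMT10plex mass spectrometry, three independent biological replicates.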
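For solubility change mitosis vs G1/S (difference of NP-40 vs SDS log2 ratios) in this document: synchronized HeLa Kyoto cells (double thymidine block for G1/S, nocodazole release for mitosis), protein amounts in NP-40 versus SDS lysates quantified by mass spectrometry, three biological replicates.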
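For solubility in G1/S (NP-40 vs SDS abundance) in this document: HeLa Kyoto cells arrested at G1/S by double thymidine block, proteins quantified by TMT10plex mass spectrometry in mild NP-40 versus SDS extracts, three biological replicates.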
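For thermal stability score vs G1/S (z-score of summed log2 fold changes over temperatures) in this document: synchronized HeLa Kyoto cells, proteins quantified by TMT10plex mass spectrometry, three biological replicates, mitosis taken 0.5 h after nocodazole release, G1/S directly after double thymidine block.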

“MDPTAGSKKEPGGGAATEEGVNRIAVPKPPSIEEFSIVKPISRGAFGKVYLGQKGGKLYAVKVVKKADMINKNMTHQVQAERDALALSKSPFIVHLYYSLQSANNVYLVMEYLIGGDVKSLLHIYGYFDEEMAVKYISEVALALDYLHRHGIIHRDLKPDNMLISNEGHIKLTDFGLSKVTLNRDINMMDILTTPSMAKPRQDYSRTPGQVLSLISSLGFNTPIAEKNQDPANILSACLSETSQLSQGLVCPMSVDQKDTTPYSSKLLKSCLETVASNPGMPVKCLTSNLLQSRKRLATSSASSQSHTFISSVESECHSSPKWEKDCQESDEALGPTMMSWNAVEKLCAKSANAIETKGFNKKDLELALSPIHNSSALPTTGRSCVNLAKKCFSGEVSWEAVELDVNNINMDTDTSQLGFHQSNQWAVDSGGISEEHLGKRSLKRNFELVDSSPCKKIIQNKKTCVEYKHNEMTNCYTNQNTGLTVEVQDLKLSVHKSQQNDCANKENIVNSFTDKQQTPEKLPIPMIAKNLMCELDEDCEKNSKRDYLSSSFLCSDDDRASKNISMNSDSSFPGISIMESPLESQPLDSDRSIKESSFEESNIEDPLIVTPDCQEKTSPKGVENPAVQESNQKMLGPPLEVLKTLASKRNAVAFRSFNSHINASNNSEPSRMNMTSLDAMDISCAYSGSYPMAITPTQKRRSCMPHQQTPNQIKSGTPYRTPKSVRRGVAPVDDGRILGTPDYLAPELLLGRAHGPAVDWWALGVCLFEFLTGIPPFNDETPQQVFQNILKRDIPWPEGEEKLSDNAQSAVEILLTIDDTKRAGMKELKRHPLFSDVDWENLQHQTMPFIPQPDDETDTSYFEARNTAQHLTVSGFSL [MASTL]”: the “solubility change mitosis (log2)” value in data set [1] was -0.0152. Further, the “solubility in G1/S (log2)” value in data set [2] is 0.0696. The melting temperature came out at 48.4 °C in data set [3] (cell cycle stage: G1/S) and 50.5 °C in data set [3] (cell cycle stage: mitosis). Further, the thermal stability score in data set [4] (setting [5]) was found to be 2.99; in data set [4] (cell cycle stage: mitosis), 5.64.
As to “MDQCVTVERELEKVLHKFSGYGQLCERGLEELIDYTGGLKHEILQSHGQDAELSGTLSLVLTQCCKRIKDTVQKLASDHKDIHSSVSRVGKAIDKNFDSDISSVGIDGCWQADSQRLLNEVMVEHFFRQGMLDVAEELCQESGLSVDPSQKEPFVELNRILEALKVRVLRPALEWAVSNREMLIAQNSSLEFKLHRLYFISLLMGGTTNQREALQYAKNFQPFALNHQKDIQVLMGSLVYLRQGIENSPYVHLLDANQWADICDIFTRDACALLGLSVESPLSVSFSAGCVALPALINIKAVIEQRQCTGVWNQKDELPIEVDLGKKCWYHSIFACPILRQQTTDNNPPMKLVCGHIISRDALNKMFNGSKLKCPYCPMEQSPGDAKQIFF [RMND5A]”, the “solubility change mitosis (log2)” value in data set [1] is -0.047. Moreover, the “solubility in G1/S (log2)” value in data set [2] came to 0.298. For the same sequence, the melting temperature in data set [3] (cell cycle stage: G1/S) was 51.1 °C. The thermal stability score came out at 0.294 in data set [4] (setting [5]) and 0.672 in data set [4] (cell cycle stage: mitosis).
As for “MDQPFTVNSLKKLAAMPDHTDVSLSPEERVRALSKLGCNITISEDITPRRYFRSGVEMERMASVYLEEGNLENAFVLYNKFITLFVEKLPNHRDYQQCAVPEKQDIMKKLKEIAFPRTDELKNDLLKKYNVEYQEYLQSKNKYKAEILKKLEHQRLIEAERKRIAQMRQQQLESEQFLFFEDQLKKQELARGQMRSQQTSGLSEQIDGSALSCFSTHQNNSLLNVFADQPNKSDATNYASHSPPVNRALTPAATLSAVQNLVVEGLRCVVLPEDLCHKFLQLAESNTVRGIETCGILCGKLTHNEFTITHVIVPKQSAGPDYCDMENVEELFNVQDQHDLLTLGWIHTHPTQTAFLSSVDLHTHCSYQLMLPEAIAIVCSPKHKDTGIFRLTNAGMLEVSACKKKGFHPHTKEPRLFSICKHVLVKDIKIIVLDLR [STAMBPL1]”, in data set [1], the “solubility change mitosis (log2)” value was -0.137. Further, in data set [2], the “solubility in G1/S (log2)” value is -0.0141. Further, the melting temperature is 50.3 °C in data set [3] (cell cycle stage: G1/S) and 51 °C in data set [3] (cell cycle stage: mitosis). Also, the thermal stability score is -0.397 in data set [4] (setting [5]) and -0.032 in data set [4] (cell cycle stage: mitosis).
For “MDRMASSMKQVPNPLPKVLSRRGVGAGLEAAERESFERTQTVSINKAINTQEVAVKEKHARTCILGTHHEKGAQTFWSVVNRLPLSSNAVLCWKFCHVFHKLLRDGHPNVLKDSLRYRNELSDMSRMWGHLSEGYGQLCSIYLKLLRTKMEYHTKNPRFPGNLQMSDRQLDEAGESDVNNFFQLTVEMFDYLECELNLFQTVFNSLDMSRSVSVTAAGQCRLAPLIQVILDCSHLYDYTVKLLFKLHSCLPADTLQGHRDRFMEQFTKLKDLFYRSSNLQYFKRLIQIPQLPENPPNFLRASALSEHISPVVVIPAEASSPDSEPVLEKDDLMDMDASQQNLFDNKFDDIFGSSFSSDPFNFNSQNGVNKDEKDHLIERLYREISGLKAQLENMKTESQRVVLQLKGHVSELEADLAEQQHLRQQAADDCEFLRAELDELRRQREDTEKAQRSLSEIERKAQANEQRYSKLKEKYSELVQNHADLLRKNAEVTKQVSMARQAQVDLEREKKELEDSLERISDQGQRKTQEQLEVLESLKQELATSQRELQVLQGSLETSAQSEANWAAEFAELEKERDSLVSGAAHREEELSALRKELQDTQLKLASTEESMCQLAKDQRKMLLVGSRKAAEQVIQDALNQLEEPPLISCAGSADHLLSTVTSISSCIEQLEKSWSQYLACPEDISGLLHSITLLAHLTSDAIAHGATTCLRAPPEPADSLTEACKQYGRETLAYLASLEEEGSLENADSTAMRNCLSKIKAIGEELLPRGLDIKQEELGDLVDKEMAATSAAIETATARIEEMLSKSRAGDTGVKLEVNERILGCCTSLMQAIQVLIVASKDLQREIVESGRGTASPKEFYAKNSRWTEGLISASKAVGWGATVMVDAADLVVQGRGKFEELMVCSHEIAASTAQLVAASKVKADKDSPNLAQLQQASRGVNQATAGVVASTISGKSQIEETDNMDFSSMTLTQIKRQEMDSQVRVLELENELQKERQKLGELRKKHYELAGVAEGWEEGTEASPPTLQEVVTEKE [HIP1]”, the “solubility change mitosis (log2)” value in data set [1] was determined as 0.0765. The “solubility in G1/S (log2)” value in data set [2] came out at 0.0989. The melting temperature in data set [3] (cell cycle stage: G1/S) stood at 49.9 °C; in data set [3] (cell cycle stage: mitosis) it was 50.2 °C. The figures for the thermal stability score in data set [4] (setting [5]) and in data set [4] (cell cycle stage: mitosis) were 0.173 and 1.11, respectively.
Consider “MDRSAEFRKWKAQCLSKADLSRKGSVDEDVVELVQFLNMRDQFFTTSSCAGRILLLDRGINGFEVQKQNCCWLLVTHKLCVKDDVIVALKKANGDATLKFEPFVLHVQCRQLQDAQILHSMAIDSGFRNSGITVGKRGKTMLAVRSTHGLEVPLSHKGKLMVTEEYIDFLLNVANQKMEENKKRIERFYNCLQHALERETMTNLHPKIKEKNNSSYIHKKKRNPEKTRAQCITKESDEELENDDDDDLGINVTIFPEDY [TYW3]”, for which the “solubility change mitosis (log2)” value in data set [1] was -0.194. The “solubility in G1/S (log2)” value in data set [2] was found to be 0.102. Besides, the melting temperature in data set [3] (cell cycle stage: G1/S) is 55 °C; in data set [3] (cell cycle stage: mitosis), 54.9 °C. Further, the thermal stability score in data set [4] (setting [5]) is -0.67; in data set [4] (cell cycle stage: mitosis) it was -1.25.
